Data reported in publication PMC9834240, “Senescent cells perturb intestinal stem cell differentiation through Ptk7 induced noncanonical Wnt and YAP signaling” (Nature Communications, 2023).

What was measured:
Assay type in all cases: cell-based
[1] = system: mouse intestinal organoids; assay: cystic organoid percentage, organoids in conditioned media (SCM/QCM) with or without inhibitors or antibodies; conditions: SCM-exposed organoids
Procedure: Twenty-four hours before collecting conditioned media (CM), MEFs were washed with serum-free DMEM twice, and serum-free DMEM was added. After 24 h in serum-free DMEM, this CM was collected, filtered using Steriflip filters (Millipore, #SE1M179M6) to remove cell debris, and concentrated using centrifugal filter units (Amicon ultra-15 centricon; Millipore, # UFC900324). […] CM was filtered and dialyzed for 24–48 h to remove the inhibitors before concentration.
(§1) The jejunum part of the small intestine was removed, flushed with PBS, opened longitudinally, then cut into 0.5 cm pieces. The collected tissues were washed with ice cold PBS multiple times by vortexing and incubated in PBS containing 2.5 mM EDTA for 5 min at 37 °C. After gentle shaking and aspiration, tissues were incubated in PBS containing 5 mM EDTA for 7 min at 37 °C. Tissues were then washed with PBS to remove EDTA and vigorously shaken to release crypts. The released crypts were passed through 70 μm strainers, washed with PBS, and pelleted by centrifugation at 200 × g.
(§2) 3-4 biological replicates of organoids from different mice were used per condition. Organoids were cultured in the indicated media, inhibitors, antibodies and/or recombinant proteins for 5 d and fixed in 4% formaldehyde in PBS. Organoids were imaged with a 4× Plan Fluor objective (NA: 0.13, Nikon) on a Nikon Ti-E inverted microscope equipped with a Neo scMOS camera (Andor, Oxford Instruments), a linear encoded automated stage (Applied Scientific Instrumentation), all run by NIS Elements software (Nikon). Organoids were imaged in brightfield and images covering the whole well were stitched and focused into one image projection with an extended depth of focus module (EDF; Nikon). One hundred to 200 organoids per replicate per condition were counted and used for quantification. The number of budding organoids in each condition was normalized by the number of budding organoids in untreated or DMSO treated controls to calculate cystic organoid percentage:1 Cysticorganoidpercentage=100×1−Numberofbuddingorganoidsfromexperiment/Numberofbuddingorganoidsfromcontrol

[2] = system: YAP in mouse intestinal organoids; assay: whole mount immunostaining for YAP nuclear localization
Procedure: For whole mount staining, freshly passaged crypts were mixed with Matrigel (Corning, #356231) and mounted to µ-Slide 8 well chamber slides (ibidi, #80826). Media were changed every 2–3 d. 5 days later, organoids in the chamber slides were then fixed in 4% formaldehyde in PBS for 30 min, permeabilized with 0.5% Triton X-100 for 1 h, and incubated in blocking solution (3% normal donkey serum (Sigma-Aldrich, #566460) and 5% BSA (Sigma-Aldrich, #A7979) in 0.1% Triton X-100 + PBS) for 1 h. Primary and secondary antibodies were diluted in blocking solution and added to fixed organoids. Organoids were incubated with primary antibodies overnight at 4 °C and with secondary antibodies for 2 h. ProLong Diamond Antifade Mountant (Invitrogen, # P36970) was added. Images were acquired with a Yokogawa CSU-W1/Zeiss 3i Marianas spinning disk confocal microscopy system. For each organoid, Z-planes up to 100 μm with 1 or 1.5 μm z-steps were acquired to quantify the number of cell types.

[3] = system: mouse intestinal organoids; assay: cystic organoid percentage, co-culture with quiescent or senescent intestinal fibroblasts; set-up: key: % = 100×(1 − budding organoids treated/budding organoids control); conditions: relative to DMSO = 0
Procedure: as §2
Mouse intestinal fibroblasts were purchased from Cell Biologics (#C57-6231) and cultured in Complete Fibroblast Medium (Cell Biologics, M2267) at 37 °C and 5% CO2. Cellular quiescence and senescence in mouse intestinal fibroblasts were induced by the similar methods described earlier for MEFs with minor modifications. Briefly, cellular quiescence was induced by culturing the fibroblasts in low serum (0.5% FBS), and cellular senescence was induced by 500 nM doxorubicin treatment for 5 days (doxorubicin; Sigma-Aldrich, #44583). Once cellular quiescence or senescence was induced, MEFs were maintained at 37 °C, 5% CO2, and 3% O2 for another 5 days. The quiescent or senescent fibroblasts were dissociated using 0.05% Trypsin-EDTA (Gibco, #25300-054) and counted for seeding. The same number of quiescent and senescent fibroblasts (5.2 × 10^4 cells) were mixed with intestinal organoids making total volume of 20 μl of Matrigel: organoid culture media mix, which was mounted on a 48 well plate.

[4] = system: mouse intestinal organoids; assay: inhibition of Wnt5a-induced cystic organoids; conditions: Wnt5a-treated organoids
Procedure: as §1, with “g. Resuspended crypts were mixed with Matrigel (Corning, #356231; Lot#8218007) and pipetted into culture plates. After mixture of crypts and Matrigel solidified, IntestiCult Organoid Growth Medium (Stem Cell Technologies, #06005; Lots #1000021927, #1000034230, #1000037372) was added. Seven days after seeding, organoids were resuspended in dissociation buffer (Gentle Cell Dissociation Reagent; Stem Cell Technologies, #07174), dissociated by pipetting, and seeded for experiments.” for “g.”
as §2

[5] = system: β-Catenin-dependent Wnt signaling (HEK293-TB cells); assay: TOPbrite dual-luciferase Wnt reporter assay; conditions: SF.3e
Procedure: Generation of HEK293 cells stably expressing a TOPbrite firefly luciferase Wnt reporter and pRL-SV40 Renilla luciferase (HEK293-TB) was previously described. HEK293-TB cells were maintained in DMEM/F12 (50:50), supplemented with 10% FBS, 2 mM Glutamax (Gibco, #35050-061) and 40 μg/ml hygromycin (Cellgro, #30-240-CR). For the luciferase reporter assay, HEK293-TB cells were seeded in 96-well plates (Falcon, #353377). The next day, cells were treated with indicated Wnt ligands (50 ng/ml) or CM diluted in culture media. After 24 h, the firefly and Renilla luciferase activity was measured using Dual-Glo Luciferase Assay system (Promega, #E2940) on a Perkin Elmer EnVision multilabel reader. The ratios of firefly luminescence to Renilla luminescence were calculated and normalized to control samples that were not treated.

[6] = system: mouse intestinal organoids; assay: cystic organoid percentage, organoids treated with recombinant Wnt ligands (Wnt3a, Wnt5a, Wnt11); conditions: for cystic organoid percentage: SF.3p, Untreated = 0
Procedure: as §1, with “g. Resuspended crypts were mixed with Matrigel (Corning, #356231; Lot#8218007) and pipetted into culture plates. After mixture of crypts and Matrigel solidified, IntestiCult Organoid Growth Medium (Stem Cell Technologies, #06005; Lots #1000021927, #1000034230, #1000037372) was added. Seven days after seeding, organoids were resuspended in dissociation buffer (Gentle Cell Dissociation Reagent; Stem Cell Technologies, #07174), dissociated by pipetting, and seeded for experiments.” for “g.”
as §2

## CN([C@@H](Cc1ccc(OS(=O)(=O)c2cccc3cnccc23)cc1)C(=O)N1CCN(c2ccccc2)CC1)S(=O)(=O)c1cccc2cnccc12 [KN-62]
[1]
  effect on cystic organoid phenotype: suppressed the cystic organoid phenotype
[2]
  effect on nuclear localization of YAP: reversed SCM- or Wnt5a-induced nuclear translocation of YAP

## C=CC[C@@H]1/C=C(\C)C[C@H](C)C[C@H](OC)[C@H]2O[C@@](O)(C(=O)C(=O)N3CCCC[C@H]3C(=O)O[C@H](/C(C)=C/[C@@H]3CC[C@@H](O)[C@H](OC)C3)[C@H](C)[C@@H](O)CC1=O)[C@H](C)C[C@@H]2OC [FK506]
[1]
  effect on cystic organoid phenotype: had no effect on this phenotype
[3]; 10 uM FK506, no fibroblasts, replicate 1
  cystic organoids (sheet SF.5d): 16.7523
[3]; 10 uM FK506, no fibroblasts, replicate 2
  cystic organoids (sheet SF.5d): 26.0945
[3]; 10 uM FK506, no fibroblasts, replicate 3
  cystic organoids (sheet SF.5d): 24.3439
[3]; Q + 10uM FK506 (quiescent fibroblasts), replicate 1
  cystic organoids (sheet SF.5d): 27.9243
[3]; Q + 10uM FK506 (quiescent fibroblasts), replicate 2
  cystic organoids (sheet SF.5d): 44.452
[3]; Q + 10uM FK506 (quiescent fibroblasts), replicate 3
  cystic organoids (sheet SF.5d): 38.0019
[3]; SEN + 10uM FK506 (senescent fibroblasts), replicate 1
  cystic organoids (sheet SF.5d): 52.1362
[3]; SEN + 10uM FK506 (senescent fibroblasts), replicate 2
  cystic organoids (sheet SF.5d): 72.7766
[3]; SEN + 10uM FK506 (senescent fibroblasts), replicate 3
  cystic organoids (sheet SF.5d): 37.8556

## CN1CCN(CCCN2c3ccccc3Sc3ccc(C(F)(F)F)cc32)CC1 [TFP, Trifluoperazine]
[4]
  effect on Wnt5a-induced cystic organoid phenotype: reduced the percentage of cystic organoids
[1]
  effect on cystic organoid phenotype: reduced the percentage of cystic organoids
[2]
  effect on nuclear localization of YAP: reversed SCM- or Wnt5a-induced nuclear translocation of YAP

## O=C(O)c1ccc2c3c1cccc3c(=O)n1c3ccccc3nc21 [STO-609]
[1]
  effect on cystic organoid phenotype: suppressed the cystic organoid phenotype
[2]
  effect on nuclear localization of YAP: reversed SCM- or Wnt5a-induced nuclear translocation of YAP

B1: Wnt11: noncanonical Wnt ligand; recombinant protein, R&D Systems 6179-WN-010 (protein, UniProt O96014 25-354, looked up)
Protein Wnt-11: IKWLALSKTPSALALNQTQHCKQLEGLVSAQVQLCRSNLELMHTVVHAAREVMKACRRAFADMRWNCSSIELAPNYLLDLERGTRESAFVYALSAAAISHAIARACTSGDLPGCSCGPVPGEPPGPGNRWGGCADNLSYGLLMGAKFSDAPMKVKKTGSQANKLMRLHNSEVGRQALRASLEMKCKCHGVSGSCSIRTCWKGLQELQDVAADLKTRYLSATKVVHRPMGTRKHLVPKDLDIRPVKDSELVYLQSSPDFCMKNEKVGSHGTQDRQCNKTSNGSDSCDLMCCGRGYNPYTDRVVERCHCKYHWCCYVTCRRCERTVERYVCK
[5]; replicate 1
  TOPbrite dual-luciferase Wnt reporter activity: 0.9689
[5]; replicate 2
  TOPbrite dual-luciferase Wnt reporter activity: 1.428
[5]; replicate 3
  TOPbrite dual-luciferase Wnt reporter activity: 1.229
[5]; replicate 4
  TOPbrite dual-luciferase Wnt reporter activity: 1.621
[6]; 25ng/ml, replicate 1
  cystic organoid percentage: 1.8358
[6]; 25ng/ml, replicate 2
  cystic organoid percentage: -0.2717
[6]; 25ng/ml, replicate 3
  cystic organoid percentage: -1.279
[6]; 50ng/ml, replicate 1
  cystic organoid percentage: -0.06739
[6]; 50ng/ml, replicate 2
  cystic organoid percentage: -5.163
[6]; 50ng/ml, replicate 3
  cystic organoid percentage: 1.176
[6]; 100ng/ml, replicate 1
  cystic organoid percentage: -0.2558
[6]; 100ng/ml, replicate 2
  cystic organoid percentage: -1.25
[6]; 100ng/ml, replicate 3
  cystic organoid percentage: 2.262
[6]; 250 ng/ml, replicate 1
  cystic organoid percentage: 2.331
[6]; 250 ng/ml, replicate 2
  cystic organoid percentage: -7.143
[6]; 250 ng/ml, replicate 3
  cystic organoid percentage: 1.176
[6]; 500ng/ml, replicate 1
  cystic organoid percentage: 2.331
[6]; 500ng/ml, replicate 2
  cystic organoid percentage: -1.6129
[6]; 500ng/ml, replicate 3
  cystic organoid percentage: 1.42
[6]; 1ug/ml, replicate 1
  cystic organoid percentage: 2.516
[6]; 1ug/ml, replicate 3
  cystic organoid percentage: -0.8403
[6]; recombinant Wnt ligand added to crypt cultures
  induction of cystic organoids: failed to induced cystic organoids
